Holding throughout (experiment): SPR
On the technique in general: In SPR one partner is held on a chip, and binding of the other changes the refractive index at the surface.

Assay [1] addresses T1, recombinant human IL-5 (human, UniProt P05113 20-134).
Assay [2] deals with T1, recombinant human IL-5. This is another data set of the same source.
Assay [3] deals with T1, recombinant human IL-5. This is another data set of the same source.
Assay [4] has as its target T1, recombinant human IL-5. This is another data set of the same source.
In assay [5] the target is T1, recombinant human IL-5. The source holds these as a separate data set.
In assay [6] the target is T1, recombinant human IL-5. The source holds these as a separate data set.
Assay [7] has as its target T1, recombinant human IL-5. The source holds these as a separate data set.
In assay [8] the target is T1, recombinant human IL-5. The source holds these as a separate data set.
Assay [9] concerns the target T1, recombinant human IL-5. The source holds these as a separate data set.

The term Kd denotes the constant that tells how readily two partners part at equilibrium. Broadly, the koff is a measure of how fast the partners let go of each other. In general, kon refers to the rate constant with which the complex forms.

Where two headings read alike, the source gives them in different places.

B1: 3A5.040 (antibody, human IgG4 S228P, lambda)
heavy: not shown
light: SYVLTQPPSVSVAPGQTARITCGGNNIGSKNVYWYQQKPGQAPVLVVHDDSDRPSGIPERFSGSNSGNTATLTISRVEVGDEADYSCQVWDSSSDHVVFGGGTKLTVLGQPKAAPSVTLFPPSSEELQANKATLVCLISDFYPGAVTVAWKADSSPVKAGVETTTPSKQSNNKYAASSYLSLTPEQWKSHRSYSCQVTHEGSTVEKTVAPTECS
On to B1, for which the Kd with recombinant human IL-5 [1] worked out at 0.173 nM; with recombinant human IL-5 [2], 0.168 nM; with recombinant human IL-5 [3] it was 0.15 nM; with recombinant human IL-5 [4] it was 0.2 nM; in the assay with recombinant human IL-5 [5], 0.174 nM; with recombinant human IL-5 [6], 0.168 nM. For the same molecule, the Kd stood at 0.193 nM with recombinant human IL-5 [7] and 0.16 nM with recombinant human IL-5 [8]. Also, the off-rate (koff) was 0.000243 s⁻¹ in the assay with recombinant human IL-5 [1]; 0.00023 s⁻¹ with recombinant human IL-5 [2]; 0.000215 s⁻¹ in the assay with recombinant human IL-5 [3]; 0.000284 s⁻¹ with recombinant human IL-5 [4]; 0.000252 s⁻¹ with recombinant human IL-5 [5]; 0.000239 s⁻¹ in the assay with recombinant human IL-5 [6]. Besides, the off-rate constant (koff) is 0.000285 s⁻¹ with recombinant human IL-5 [7] and 0.000232 s⁻¹ in the assay with recombinant human IL-5 [8]. Besides, the association rate constant (kon) with recombinant human IL-5 [1] was 1.41e+06 M⁻¹ s⁻¹; with recombinant human IL-5 [2] it was 1.37e+06 M⁻¹ s⁻¹; with recombinant human IL-5 [3] it was 1.43e+06 M⁻¹ s⁻¹; in the assay with recombinant human IL-5 [4] it was 1.42e+06 M⁻¹ s⁻¹; with recombinant human IL-5 [5], 1.45e+06 M⁻¹ s⁻¹; with recombinant human IL-5 [7], 1.48e+06 M⁻¹ s⁻¹. Moreover, the kon turned out to be 1.45e+06 M⁻¹ s⁻¹ with recombinant human IL-5 [8] and 1.43e+06 M⁻¹ s⁻¹ in the assay with recombinant human IL-5 [9].

Source of the values: patent publication US20180186873A1 (CEPHALON, published 2018).
